# Data taken from PMC6329447.
# T1: Olig1 (Danio rerio (zebrafish), UniProt Q5QJR2 1-235)
# T1 sequence: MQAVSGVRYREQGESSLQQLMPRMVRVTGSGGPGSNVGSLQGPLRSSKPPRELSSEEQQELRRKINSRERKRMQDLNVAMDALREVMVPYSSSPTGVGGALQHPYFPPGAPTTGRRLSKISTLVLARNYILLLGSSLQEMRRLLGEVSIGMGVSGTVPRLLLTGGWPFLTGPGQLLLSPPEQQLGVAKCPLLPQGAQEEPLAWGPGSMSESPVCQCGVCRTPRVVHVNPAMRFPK
# B1: EbS2 (dsDNA)
# DNA 1: CAAGTCGGGGCAGATGTGGACTAGAACAATAGCAGCTCC
# DNA 2: GGAGCTGCTATTGTTCTAGTCCACATCTGCCCCGACTTG
# B2: EbS2mut (dsDNA)
# DNA 1: CAAGTCGGGGCAGATGTGGACTAGGCCGCTAGCAGCTCC
# DNA 2: GGAGCTGCTAGCGGCCTAGTCCACATCTGCCCCGACTTG
# B3: EbmutS2 (dsDNA)
# DNA 1: CAAGTCGGGGTTGTAATGGACTAGAACAATAGCAGCTCC
# DNA 2: GGAGCTGCTATTGTTCTAGTCCATTACAACCCCGACTTG
# What was measured:
# [1] = molecular target: zebrafish Olig1, mammalian two-hybrid fusion (zebrafish); assay: two-hybrid
# [2] = molecular target: zebrafish Olig2, mammalian two-hybrid fusion (zebrafish); assay: two-hybrid
# Sox10 [3] = molecular target: T2, Sox10 (Danio rerio (zebrafish), UniProt Q90XD1 1-485); assay: EMSA
# Olig1 [4] = molecular target: T1, Olig1; assay: EMSA
# Sox10 [5] = molecular target: T2, Sox10; assay: competition
# Olig1 [6] = molecular target: T1, Olig1; assay: competition
molecule,measurement,setting,value
"zebrafish Olig1, mammalian two-hybrid fusion (natural protein)",fold increase of luciferase activity,[1],8 fold
same,fold increase of luciferase activity,[2],8 fold
B1,binding result,Sox10 [3],binds
same,binding result,Olig1 [4],binds
B2,binding result,Sox10 [5],no binding
B3,binding result,Olig1 [6],no binding
